Test results from patent US5948643, “Modulators of BRCA1 activity” (Onyx Pharmaceuticals, Inc., dated 1999).

B1: BRCA1 Modulator Protein 091-1F84, Sequence ID No. 3, fused to the GAL4 activation domain (other)
chain: ARESLSLPSMLRDAAIGTTPFSTCSVGTWFTPSAPQEKSTNTSQTGLVGTKHSTSETEQLLCGRPPDLTALSRHDLEDNLLSSLVILEVLSRQLRDWKSQLAVPHPETQDSSTQTDTSHSGITNKLQHLKESHEMGQALQQARNVMQSWVLISKELISLLHLSLLHLEEDKTTVSQESRRAETLVCCCFDLLKKLRAKLQSLKAEREEARHREEMALRGKDAAEIVLEAFCAHASQRISQLEQDLASMREFRGLLKDAQTQLVGLHAKQEELVQQTVSLTSTLQQDWRSMQLDYTTWTALLSRSRQLTEKLTVKSQQALQERDVAIEEKQEVSRVLEQVSAQLEECKGQTEQLELENSRLATDLRAQLQILANMDSQLKELQSQHTHCAQDLAMKDELFCQLTQSNEEQAAQWQKEEMALKHMQAELQQQQAVLAKEVRDLKETLEFADQENQVAHLELGQVECQLKTTLEVLRERSLQCENLKDTVENLTAKLASTIADNQEQDLEKTRQYSQKLRLLTEQLQSLTLFLQTKLKEKTEQETLLLSTACPPTQEHPLPNDRTFLGSILTAVADEEPESTPVPLLGSDKSAFTRVASMVSLQPAETPGMEESLAEMSIMTTELQSLCSLLQESKEEAIRTLQRKICELQVRLQAQEEQHQEVQKAKEADIEKLNQALCLRYKNEKELQEVIQQQNEKILEQIDKSGELISLREEVTHLTRSLRRAETETKVLQEALAGQLDSNCQPMATNWIQEKVWLSQEVDKLRVMFLEMKNEKEKLMIKFQSHRNILEENLRRSDKELEKLDDIVQHIYKTLLSIPEVVRGCRELQGLLEFLS
B2: BRCA1 Modulator Protein 091-21A31, Sequence ID No. 1, fused to the GAL4 activation domain (other)
chain: MPIRALCTICSDFFDHSRDVAAIHCGHTFHLQCLIQWFETAPSRTCPQCRIQVGKRTIINKLFFDLAQEEENVLDAEFLKNELDNVRAQLSQKDKEKRDSQVIIDTLRDTLEERNATVVSLQQALGKAEMLCSTLKKQMKYLEQQQDETKQAQEEARRLRSKMKTMEQIELLLQSQRPEVEEMIRDMGVGQSAVEQLAVYCVSLKKEYENLKEARKASGEVADKLRKDLFSSRSKLQTVYSELDQAKLELKSAQKDLQSADKEIMSLKKKLTMLQETLNLPPVASETVDRLVLESPAPVEVNLKLRRPSFRDDIDLNATFDVDTPPARPSSSQHGYYEKLCLEKSHSPIQDVPKKICKGPRKESQLSLGGQSCAGEPDEELVGAFPIFVRNAILGQKQPKRPRSESSCSKDVVRTGFDGLGGRTKFIQPTDTVMIRPLPVKPKTKVKQRVRVKTVPSLFQAKLDTFLWS
B3: BRCA1 Modulator Protein 091-132Q20, Sequence ID No. 5, fused to the GAL4 activation domain (other)
chain: ARGGAEEATEAGRGGRRRSPRQKFEIGTMEEAGICGLGVKADMLCNSQSNDILQHQGSNCGGTSNKHSLEEDEGSDFITENRNLVSPAYCTQESREEIPGGEARTDPPDGQQDSECNRNKEKTLGKEVLLLMQALNTLSTPEEKLAALCKKYADLLEESRSVQKQMKILQKKQAQIVKEKVHLQSEHSKAILARSKLESLCRELQRHNKTLKEENMQQAREEEERRIEATAHFQITLNEIQAQLEQHDIHNAKLRQENIELGEKLKKLIEQYALREEHIDKVFKHKELQQQLVDAKLQQTTQLIKEADEKHQREREFLLKEATESRHKYEQMKQQEVQLKQQLSLYMDKFEEFQTTMAKSNELFTTFRQEMEKMTKKIKKKKKKLE
B4: 091-21A31, Sequence ID No. 1 fragment containing amino acids 78-469 fused to the GAL4 activation domain (other)
chain: FLKNELDNVRAQLSQKDKEKRDSQVIIDTLRDTLEERNATVVSLQQALGKAEMLCSTLKKQMKYLEQQQDETKQAQEEARRLRSKMKTMEQIELLLQSQRPEVEEMIRDMGVGQSAVEQLAVYCVSLKKEYENLKEARKASGEVADKLRKDLFSSRSKLQTVYSELDQAKLELKSAQKDLQSADKEIMSLKKKLTMLQETLNLPPVASETVDRLVLESPAPVEVNLKLRRPSFRDDIDLNATFDVDTPPARPSSSQHGYYEKLCLEKSHSPIQDVPKKICKGPRKESQLSLGGQSCAGEPDEELVGAFPIFVRNAILGQKQPKRPRSESSCSKDVVRTGFDGLGGRTKFIQPTDTVMIRPLPVKPKTKVKQRVRVKTVPSLFQAKLDTFLWS
B5: 091-21A31, Sequence ID No. 1 fragment containing amino acids 1-300 fused to the GAL4 activation domain (other)
chain: MPIRALCTICSDFFDHSRDVAAIHCGHTFHLQCLIQWFETAPSRTCPQCRIQVGKRTIINKLFFDLAQEEENVLDAEFLKNELDNVRAQLSQKDKEKRDSQVIIDTLRDTLEERNATVVSLQQALGKAEMLCSTLKKQMKYLEQQQDETKQAQEEARRLRSKMKTMEQIELLLQSQRPEVEEMIRDMGVGQSAVEQLAVYCVSLKKEYENLKEARKASGEVADKLRKDLFSSRSKLQTVYSELDQAKLELKSAQKDLQSADKEIMSLKKKLTMLQETLNLPPVASETVDRLVLESPAPVE
B6: 091-21A31, Sequence ID No. 1 fragment containing amino acids 300-469 fused to the GAL4 activation domain (other)
chain: EVNLKLRRPSFRDDIDLNATFDVDTPPARPSSSQHGYYEKLCLEKSHSPIQDVPKKICKGPRKESQLSLGGQSCAGEPDEELVGAFPIFVRNAILGQKQPKRPRSESSCSKDVVRTGFDGLGGRTKFIQPTDTVMIRPLPVKPKTKVKQRVRVKTVPSLFQAKLDTFLWS

Key:
[1] = molecular target: BRCA1 (1-300) fused to the GAL4 binding domain (human); experiment: yeast two-hybrid, b-galactosidase
Protocol: (§1) The experiment was conducted using the two-hybrid assay as described in U.S. Pat. No. 5,283,173, or Chien et al., 1991, Proc. Natl. Acad. Sci. USA, 88: 9578–9582. The cDNAs that encode 091-1F84, Sequence ID No. 3, 091-21A31, Sequence ID No. 1 and 091-132Q20, Sequence ID No. 5 were fused to the GAL 4 activation domain, and those regions of BRCA1 shown in the table were fused to the binding domain of GAL4. The "+" sign is a subjective measure of the amount of b-galactosidase activity. One "+" being the lowest, and three "+++" being the highest activity.
(§2) Experiments were conducted to ascertain which regions of BRCA1 interact with the three BRCA1 Modulators described in Example 1. The experiment was conducted using the two-hybrid assay as described in U.S. Pat. No. 5,283,173, or Chien et al., 1991, Proc. Natl. Acad. Sci. USA, 88: 9578–9582. The cDNA that encodes the 091-1F84, Sequence ID No. 3, 091-21A31, Sequence ID No. 1, and 091-132Q20, Sequence ID No. 5 was fused to the GAL4 activation domain, and those regions of BRCA1 shown in Table 1 and that contain BRCA1 amino acids 1–300, 1–600, or 8–1293 were fused to the binding domain of GAL4. Controls consisted of the vector, or bcl2 fused to the GAL4 binding domain (See, U.S. Pat. 5,539,085).

[2] = molecular target: T1, vector control (GAL4 binding domain vector without insert) (Saccharomyces cerevisiae (strain ATCC …, UniProt P04386)); experiment: yeast two-hybrid, b-galactosidase; vector control
Protocol: as §1, §2

[3] = molecular target: T1, vector control (GAL4 binding domain …); experiment: yeast two-hybrid (Example 3); vector control
Protocol: (§3) Two hybrid experiments were conducted to ascertain the regions of the BRCA1 Modulator 091-21A31, Sequence ID No. 1 that interact with BRCA1. The assay was run essentially as described in Example 1. Transformation and growth of yeast cultures were performed essentially as described in U.S. Pat. No. 5,283,173; Chien et al., 1991, Proc. Natl. Acad. Sci. USA, 88: 9578–9582; or Spaargaren, M., et al., (1994) Biochem. J. 300, 303–307.

[4] = molecular target: BRCA1 (1-300) fused to the GAL4 binding domain (human); experiment: yeast two-hybrid (Example 3)
Protocol: as §3

[5] = molecular target: BRCA1 (1-600) fused to the GAL4 binding domain (human); experiment: yeast two-hybrid (Example 3)
Protocol: as §3

[6] = molecular target: GAL4-BRCA1 (8-1293): BRCA1 amino acids 8-1293 fused to the GAL4 binding domain (human); experiment: yeast two-hybrid (Example 3)
Protocol: as §3

Binder	binding result [1]	binding result [2]	binding result [3]	binding result [4]	binding result [5]	binding result [6]
B1	no binding	no binding				
B2	no binding	no binding				
B3	no binding	no binding				
B4			no binding	no binding		
B5			no binding	no binding	no binding	
B6			no binding	no binding	no binding	no binding
